Test results from PMC1184220.

Assays:
[1] = molecular target: T1, TIAR (TIAR-b, short isoform) (UniProt Q01085 1-375); test: UV crosslinking
T1 sequence: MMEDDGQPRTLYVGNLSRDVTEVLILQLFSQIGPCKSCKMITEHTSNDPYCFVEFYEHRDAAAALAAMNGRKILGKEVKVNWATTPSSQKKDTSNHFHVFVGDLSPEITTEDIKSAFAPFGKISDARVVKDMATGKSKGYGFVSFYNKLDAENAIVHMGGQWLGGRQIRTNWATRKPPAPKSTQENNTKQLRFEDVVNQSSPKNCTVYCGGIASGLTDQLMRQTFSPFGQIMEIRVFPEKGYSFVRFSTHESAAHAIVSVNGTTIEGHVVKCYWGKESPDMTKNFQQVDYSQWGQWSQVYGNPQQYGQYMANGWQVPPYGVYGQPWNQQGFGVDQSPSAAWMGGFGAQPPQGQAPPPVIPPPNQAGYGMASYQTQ

[2] = molecular target: HuR (UniProt Q15717 1-326); test: UV crosslinking
[3] = molecular target: T1, TIAR (TIAR-b, short isoform); test: EMSA
[4] = molecular target: T2, TIAR RRM1 (UniProt Q01085 2-93); test: UV crosslinking titration
T2 sequence: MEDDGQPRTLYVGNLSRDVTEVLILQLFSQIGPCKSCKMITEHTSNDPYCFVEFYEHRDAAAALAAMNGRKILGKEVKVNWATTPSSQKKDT

[5] = molecular target: T3, TIA-1 (UniProt P31483 1-386); test: UV crosslinking
T3 sequence: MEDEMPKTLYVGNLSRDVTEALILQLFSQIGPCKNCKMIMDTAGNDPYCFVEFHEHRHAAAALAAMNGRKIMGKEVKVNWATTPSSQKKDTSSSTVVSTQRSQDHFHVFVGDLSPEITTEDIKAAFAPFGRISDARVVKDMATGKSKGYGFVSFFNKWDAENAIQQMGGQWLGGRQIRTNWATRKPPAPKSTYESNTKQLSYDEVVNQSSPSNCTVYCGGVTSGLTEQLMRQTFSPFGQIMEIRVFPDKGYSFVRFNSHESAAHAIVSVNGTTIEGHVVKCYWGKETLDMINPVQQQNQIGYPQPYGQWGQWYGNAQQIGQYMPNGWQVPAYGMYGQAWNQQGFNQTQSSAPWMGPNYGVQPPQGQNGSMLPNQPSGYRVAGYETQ

[6] = molecular target: T1, TIAR (TIAR-b, short isoform); test: UV crosslinking; remark: listed apart in the source
[7] = molecular target: T1, TIAR (TIAR-b, short isoform); test: UV crosslinking; remark: listed apart in the source
[8] = molecular target: T1, TIAR (TIAR-b, short isoform); test: UV crosslinking + immunoprecipitation
[9] = molecular target: T4, TIAR RRM2,3 (UniProt Q01085 94-375); test: UV crosslinking titration
T4 sequence: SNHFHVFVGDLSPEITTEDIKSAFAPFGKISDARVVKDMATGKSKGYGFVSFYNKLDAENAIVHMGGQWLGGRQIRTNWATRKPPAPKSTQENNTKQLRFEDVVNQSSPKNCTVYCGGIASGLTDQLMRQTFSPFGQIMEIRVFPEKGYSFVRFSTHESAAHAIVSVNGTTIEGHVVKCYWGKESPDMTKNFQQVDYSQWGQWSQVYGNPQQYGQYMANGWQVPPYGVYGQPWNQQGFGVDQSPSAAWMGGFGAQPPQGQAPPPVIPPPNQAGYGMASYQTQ

[10] = molecular target: T1, TIAR (TIAR-b, short isoform); test: competition

HuR, sequence (Q15717 whole entry, canonical isoform): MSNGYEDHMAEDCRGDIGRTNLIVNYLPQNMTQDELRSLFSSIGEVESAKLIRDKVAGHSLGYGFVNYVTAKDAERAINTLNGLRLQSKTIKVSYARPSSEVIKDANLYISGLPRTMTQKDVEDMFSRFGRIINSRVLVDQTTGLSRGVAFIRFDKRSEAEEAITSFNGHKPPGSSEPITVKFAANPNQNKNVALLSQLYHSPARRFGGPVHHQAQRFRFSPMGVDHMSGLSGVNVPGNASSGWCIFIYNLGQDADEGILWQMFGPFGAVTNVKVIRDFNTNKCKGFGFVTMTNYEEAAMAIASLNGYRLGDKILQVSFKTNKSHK

B1: T7tiar full-length transcript (ssRNA)
RNA: GGGAUAGUAUUGUUUAUAUUGUUCCAAUACGAAAAAAAAAAAAUACUAUUCUCAUCUU
binding result [1]: binds

AATAAATAAATGATAACAAATATTAAAATTAAAAAAG (ssDNA) [VEGF-AS2]
binding result [2]: no binding
binding result [3]: no binding
binding result [4]: no binding
binding result [5]: no binding

B2: VEGF-S2/VEGF-AS2 duplex (dsDNA)
DNA 1: CTTTTTTAATTTTAATATTTGTTATCATTTATTTATT
DNA 2: AATAAATAAATGATAACAAATATTAAAATTAAAAAAG
binding result [6]: no binding

TAAAAATAAATATGTACTACGGAATATCTCGAAAAAC (ssDNA) [VEGF-AS4]
binding result [7]: no binding

TTTTTTTTTTTTTTT (ssDNA) [oligo(dT)15]
binding result [7]: binds

CTTTTTTAATTTTAATATTTGTTATCATTTATTTATT (ssDNA) [VEGF-S2]
binding result [1]: binds

B3: T7tiar/T7 partial duplex template (mixed)
DNA 1: AAGATGAGAATAGTATTTTTTTTTTTTCGTATTGGAACAATATAAACAATACTATCCCTATAGTGAGTCGTATTA
DNA 2: TAATACGACTCACTATAGGG
binding result [8]: binds

AAAATGCTTTTTTTTTTTTA (ssDNA) [VEGF-AS1b]
binding result [7]: binds

AGAATTAAATTCTTTAATACAAAATGCTTTTTTTTTTTTA (ssDNA) [VEGF-AS1]
binding result [2]: no binding
Kd [9]: 3 nM
binding result [5]: binds

AAAATGCTTTTTTT (ssDNA) [VEGF-AS1b.2]
binding result [10]: no binding

AAAAUGCUUUUUUUUUUUUA (ssRNA) [rVEGF-AS1]
binding result [4]: no binding
binding result [5]: binds

TTAATATCTAAAATAAAATAAATT (ssDNA) [IL8-AS1]
binding result [7]: no binding
